Reference: publication PMC12018048, “Intranasal kisspeptin administration rapidly stimulates gonadotropin release in humans” (eBioMedicine, 2025)

How the values were obtained:
[1] = Safety assessments in healthy participants and patients (adverse events, blood pressure, heart rate); format: in vivo, human; conditions: intranasal; for Side effects or adverse events (of any severity): all participants in all study groups (healthy men, healthy women, patients with HA)
Description: All studies commenced at 08:00 to control for circadian hormonal changes. Participants were instructed to abstain from alcohol, caffeine, and sexual activities from 22:00 preceding each study visit. On arrival, an intravenous cannula was inserted into one antecubital fossa, and blood was sampled at timepoints −30, −15, and 0 min, before intranasal administration of kisspeptin-54 or 0.9% saline (placebo). Following participant education (described below), healthy men self-administered the following 5 interventions under supervision in random order via the intranasal route: 3.2, 6.4, 12.8, and 25.6 nmol/kg of kisspeptin-54, or placebo. Healthy women and patients with HA attended for the same protocol comparing 12.8 nmol/kg of kisspeptin-54 and placebo in random order. After administration of kisspeptin-54 or placebo at timepoint 0 min, serum levels of LH, FSH, and testosterone (in men), or oestradiol and progesterone (in women) were measured every 15 min for 4 h. Heart rate, blood pressure, and the presence of adverse symptoms were recorded every 15 min.
The primary outcome measure was change in serum LH following intranasal administration of kisspeptin compared to placebo. The secondary outcome measures were changes in serum FSH, as well as testosterone [in men], and oestradiol and progesterone [in women] following intranasal administration of kisspeptin compared to placebo. In addition, safety assessments were performed that included adverse event recording, blood pressure, and heart rate measurements.

[2] = Stability of kisspeptin-54 solutions for nasal delivery; format: physicochemical; conditions: for Reduction of the initial concentration: after 60 days, HPLC; for % of initial concentration: chemical stability, 3.5 mg/mL in 0.9% saline, HPLC-UV 220 nm, mean ± SEM, N = 3
Description: Kisspeptin-54 3.5 mg/mL solutions, equivalent to the lowest dose used in the human clinical study, were prepared and aliquoted into glass nasal spray devices and sealed amber glass vials (airtight, light protected control). The test materials were stored upright in a single location (4 °C refrigerator with temperature monitoring) with minimal manipulation or movement for 60 days. On each day of analysis, three aliquots were sampled from each container and analysed by HPLC.
Each kisspeptin-54 sample was assayed in triplicate using a Waters 2795 Separation Module HPLC equipped with Waters 2996 Photodiode Array Detector and a Luna® 3 μm C18 100 Å LC Column 150 × 4.6 mm with trimethylsilyl (TMS) end capping used. Injection volume was 25 μL and the mobile phase was a gradient using eluent A (0.05% trifluoroacetic acid (TFA):1% acetonitrile (ACN): 98.95% H20) and eluent B (0.05% TFA in MeOH/ACN 1:1(V/V)) from 20 to 60% eluent B with a flow rate of 1 mL/min and a run time of 15 min. Column temperature was set at 40 °C and ultraviolet (UV) detection at 220 nm. The assay was validated for linearity (r = 0.993), accuracy and precision in the range 0.3–0.7 mg/mL.

## Kisspeptin-54
[1]
  Side effects or adverse events (of any severity): without any side effects or adverse events
[1]; listed as kisspeptin
  Side effects or adverse events (of any severity): no side effects or adverse events
[1]; any of the doses administered, recorded every 15 min
  Effect on blood pressure or heart rate measurements: no effect
[2]; 0.9% saline solution, 4 °C
  Time within pharmaceutically accepted limits for stability: up to 60 days
[2]; 0.9% saline, 4 °C, 60 days of storage, either container type
  Appearance of the solution (clear when freshly made): no change was observed
[2]; 0.9% saline, 4 °C, glass nasal spray devices
  Reduction of the initial concentration: 5.4%
[2]; 0.9% saline, 4 °C, sealed amber glass vials
  Reduction of the initial concentration: 5.0%
[2]; 4 °C in nasal spray, 4 days
  % of initial concentration: 98.06 ± 1.11%
[2]; 4 °C in nasal spray, 7 days
  % of initial concentration: 98.28 ± 0.69%
[2]; 4 °C in nasal spray, 14 days
  % of initial concentration: 97.90 ± 0.67%
[2]; 4 °C in nasal spray, 28 days
  % of initial concentration: 96.11 ± 0.51%
[2]; 4 °C in nasal spray, 60 days
  % of initial concentration: 94.56 ± 1.67%
[2]; 4 °C in sealed amber vial, 4 days
  % of initial concentration: 98.94 ± 0.57%
[2]; 4 °C in sealed amber vial, 7 days
  % of initial concentration: 98.69 ± 0.58%
[2]; 4 °C in sealed amber vial, 14 days
  % of initial concentration: 97.91 ± 0.64%
[2]; 4 °C in sealed amber vial, 28 days
  % of initial concentration: 97.32 ± 0.56%
[2]; 4 °C in sealed amber vial, 60 days
  % of initial concentration: 95.01 ± 1.45%
